From article PMC10786891, “Massively parallel profiling of RNA-targeting CRISPR-Cas13d”
Substitutions are numbered along the chain they refer to. Names and notes keep the numbering of the source.

T1: EsCas13d, nuclease-dead (Eubacterium siraeum, UniProt B0MS50, R295A;H300A;R849A;H854A)
T1 sequence: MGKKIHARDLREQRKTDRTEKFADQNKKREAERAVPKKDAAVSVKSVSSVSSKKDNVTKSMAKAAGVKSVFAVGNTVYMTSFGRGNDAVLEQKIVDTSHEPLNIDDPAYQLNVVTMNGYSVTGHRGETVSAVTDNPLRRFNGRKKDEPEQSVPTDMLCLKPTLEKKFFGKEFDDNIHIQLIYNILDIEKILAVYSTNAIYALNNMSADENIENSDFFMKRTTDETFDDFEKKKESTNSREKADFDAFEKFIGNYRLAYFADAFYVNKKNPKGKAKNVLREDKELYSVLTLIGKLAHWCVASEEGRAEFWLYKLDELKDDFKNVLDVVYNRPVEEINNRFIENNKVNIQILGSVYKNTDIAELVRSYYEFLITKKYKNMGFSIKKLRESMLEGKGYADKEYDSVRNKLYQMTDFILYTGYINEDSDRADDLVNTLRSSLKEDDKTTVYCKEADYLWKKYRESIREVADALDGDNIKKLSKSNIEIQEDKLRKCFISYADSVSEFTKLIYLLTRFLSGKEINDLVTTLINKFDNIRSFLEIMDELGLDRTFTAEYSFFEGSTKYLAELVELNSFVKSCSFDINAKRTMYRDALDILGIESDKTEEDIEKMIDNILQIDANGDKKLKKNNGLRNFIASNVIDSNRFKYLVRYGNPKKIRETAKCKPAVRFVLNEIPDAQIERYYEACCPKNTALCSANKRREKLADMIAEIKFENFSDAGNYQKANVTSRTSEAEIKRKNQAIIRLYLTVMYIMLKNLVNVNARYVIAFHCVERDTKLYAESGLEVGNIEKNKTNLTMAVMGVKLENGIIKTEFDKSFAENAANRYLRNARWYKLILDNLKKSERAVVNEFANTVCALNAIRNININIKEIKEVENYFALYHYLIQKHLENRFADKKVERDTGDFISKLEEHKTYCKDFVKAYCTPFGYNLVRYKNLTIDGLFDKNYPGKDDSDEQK

B1: target 1 C4A,C22U (mixed)
RNA 1: CACCCGUGCAAAAAUGCAGGGGUCUAAAACUGAGCGGAUAACCUCUCUAUGG
RNA 2: GGGAAUGGAUCCACAUCUACGAAUUCGUAUCAUAGAGAGGUUAUCCGAUCACCGAGAUCGGAAGAGCACACGU
B2: target 1 U3G,U19C (mixed)
RNA 1: B1 RNA 1
RNA 2: B1 RNA 2 with U30C, U33C, A48C, U49G
B3: target 1 insA 3' of 22,insC 3' of 14 (mixed)
RNA 1: B1 RNA 1
RNA 2: GGGAAUGGAUCCACAUCUACGAAUUCGUACACAUAGAGACGGUUAUCCGCUCACCGAGAUCGGAAGAGCACACGU
B4: target 1 insC 3' of 19,insG 3' of 18 (mixed)
RNA 1: B1 RNA 1
RNA 2: B3 RNA 2 with A31C, C32A, A33U, U34C, A37G, G38A, A39G, C40A
B5: target 1 U8A,A9C (mixed)
RNA 1: B1 RNA 1
RNA 2: B1 RNA 2 with U30C, A43C, U44A, A48C
B6: target 1 G17C,C21U (mixed)
RNA 1: B1 RNA 1
RNA 2: B1 RNA 2 with U30C, C31U, G35C, A48C
B7: target 1 insA 3' of 12,insG 3' of 11 (mixed)
RNA 1: B1 RNA 1
RNA 2: GGGAAUGGAUCCACAUCUACGAAUUCGUACCAUAGAGAGGAUGUAUCCGCUCACCGAGAUCGGAAGAGCACACGU
B8: target 1 A9C,A16G (mixed)
RNA 1: B1 RNA 1
RNA 2: B1 RNA 2 with U30C, A36G, A43C, A48C
B9: target 1 insU 3' of 20,insG 3' of 14 (mixed)
RNA 1: B1 RNA 1
RNA 2: B3 RNA 2 with A31C, C32A, A33U, C40G
B10: target 1 insA 3' of 11,insA 3' of 8 (mixed)
RNA 1: B1 RNA 1
RNA 2: B7 RNA 2 with A41U, U42A, G43U, U44A, A45U, U46A
B11: target 1 insG 3' of 20,insC 3' of 19 (mixed)
RNA 1: B1 RNA 1
RNA 2: B7 RNA 2 with U33G, A34U, G35C, G40A, A41G, U42G, G43U
B12: target 1 insG 3' of 18,insG 3' of 8 (mixed)
RNA 1: B1 RNA 1
RNA 2: B7 RNA 2 with A36G, G37A, A38G, G39A, A41G, G43U, U44A, A45U, U46G
B13: target 1 insG 3' of 10,insC 3' of 5 (mixed)
RNA 1: B1 RNA 1
RNA 2: B7 RNA 2 with A41U, U44A, A45U, U46C, C48G, G49C
B14: target 1 A9G,U19G (mixed)
RNA 1: B1 RNA 1
RNA 2: B1 RNA 2 with U30C, U33G, A43G, A48C
B15: target 1 C6A,C21A (mixed)
RNA 1: B1 RNA 1
RNA 2: B1 RNA 2 with U30C, C31A, C46A, A48C
B16: target 1 U10A,G12A (mixed)
RNA 1: B1 RNA 1
RNA 2: B1 RNA 2 with U30C, G40A, U42A, A48C
B17: target 1 insU 3' of 7,insG 3' of 7 (mixed)
RNA 1: B1 RNA 1
RNA 2: B7 RNA 2 with A41U, G43A, A45C, C47G
B18: target 1 insA 3' of 15,insU 3' of 14 (mixed)
RNA 1: B1 RNA 1
RNA 2: B7 RNA 2 with G39A, G40U, A41G, U42G, G43U
B19: target 1 C4A,U10C (mixed)
RNA 1: B1 RNA 1
RNA 2: B1 RNA 2 with U30C, U42C
B20: target 1 insC 3' of 5,insA 3' of 2 (mixed)
RNA 1: B1 RNA 1
RNA 2: B7 RNA 2 with A41U, G43A, A45C, U46C, C47G, G49C, C50U, U51C, C52A
B21: target 1 C2A,A20C (mixed)
RNA 1: B1 RNA 1
RNA 2: B1 RNA 2 with U30C, A32C, A48C, C50A
B22: target 1 A20C,C21G (mixed)
RNA 1: B1 RNA 1
RNA 2: B1 RNA 2 with U30C, C31G, A32C, A48C
B23: target 1 insC 3' of 5,insA 3' of 5 (mixed)
RNA 1: B1 RNA 1
RNA 2: B7 RNA 2 with A41U, G43A, A45C, U46C, C47G, G49A
B24: target 1 C6G,C7U (mixed)
RNA 1: B1 RNA 1
RNA 2: B1 RNA 2 with U30C, C45U, C46G, A48C
B25: target 1 insU 3' of 20,insU 3' of 12 (mixed)
RNA 1: B1 RNA 1
RNA 2: B3 RNA 2 with A31C, C32A, A33U, C40G, G42U
B26: target 1 C6G,A20C (mixed)
RNA 1: B1 RNA 1
RNA 2: B1 RNA 2 with U30C, A32C, C46G, A48C
B27: target 1 insC 3' of 16,insC 3' of 15 (mixed)
RNA 1: B1 RNA 1
RNA 2: B7 RNA 2 with G37C, A38G, G39C, G40A, A41G, U42G, G43U
B28: target 1 G5U,C6A (mixed)
RNA 1: B1 RNA 1
RNA 2: B1 RNA 2 with U30C, C46A, G47U, A48C
B29: target 1 insA 3' of 22,insA 3' of 7 (mixed)
RNA 1: B1 RNA 1
RNA 2: B3 RNA 2 with C40G, G42U, U44A, A45U, U46C, C47A
B30: target 1 insG 3' of 16,insA 3' of 15 (mixed)
RNA 1: B1 RNA 1
RNA 2: B7 RNA 2 with A38G, G39A, G40A, A41G, U42G, G43U
B31: target 1 U8C,A16U (mixed)
RNA 1: B1 RNA 1
RNA 2: B1 RNA 2 with U30C, A36U, U44C, A48C
B32: target 1 insC 3' of 19,insC 3' of 19 (mixed)
RNA 1: B1 RNA 1
RNA 2: B7 RNA 2 with A34C, G35C, G40A, A41G, U42G, G43U
B33: target 1 U10G,U19G (mixed)
RNA 1: B1 RNA 1
RNA 2: B1 RNA 2 with U30C, U33G, U42G, A48C
B34: target 1 del3,del15 (mixed)
RNA 1: B1 RNA 1
RNA 2: GGGAAUGGAUCCACAUCUACGAAUUCGUACCAUAGAAGGUUAUCCGCCACCGAGAUCGGAAGAGCACACGU
B35: target 1 insA 3' of 15,insA 3' of 12 (mixed)
RNA 1: B1 RNA 1
RNA 2: B7 RNA 2 with G39A, A41G, U42A, G43U
B36: target 1 G12U,U19G (mixed)
RNA 1: B1 RNA 1
RNA 2: B1 RNA 2 with U30C, U33G, G40U, A48C

The binders below were run against T1, EsCas13d, nuclease-dead (assay: crRNA (strand 1, pre-loaded); Mg2+; 40 mM Tris-HCl pH 7.5, 150 mM NaCl, 6 mM MgCl2, 1 mM DTT, 0.1% Tween-20, 0.2 mg/ml BSA; 25 C; 10 min per concentration, then washed). Settings: tags: His6-TwinStrep-SUMO cleaved; N-terminal SNAP kept (SNAP-Surface 488); label: 3' end held by stalled T7 RNA polymerase.

Binder	Kd
B1	9.2 ± 1 nM
B2	25.1 ± 3.4 nM
B3	36 ± 6 nM
B4	89 ± 19 nM
B5	8.9 ± 0.4 nM
B6	7.6 ± 0.7 nM
B7	49 ± 6 nM
B8	68 ± 27 nM
B9	18.9 ± 0.9 nM
B10	39.7 ± 3.3 nM
B11	59 ± 10 nM
B12	50 ± 4 nM
B13	46 ± 8 nM
B14	49 ± 14 nM
B15	23.5 ± 1.7 nM
B16	5.86 ± 0.25 nM
B17	9.1 ± 0.6 nM
B18	21.1 ± 1.8 nM

Binder	Kd
B19	5.53 ± 0.31 nM
B20	7.87 ± 0.33 nM
B21	36 ± 4 nM
B22	57 ± 26 nM
B23	11.5 ± 0.5 nM
B24	8.06 ± 0.32 nM
B25	11.5 ± 0.7 nM
B26	36 ± 6 nM
B27	84 ± 27 nM
B28	24.3 ± 1.6 nM
B29	8 ± 0.6 nM
B30	17.5 ± 0.9 nM
B31	59 ± 8 nM
B32	29.2 ± 3.5 nM
B33	90 ± 40 nM
B34	30.2 ± 3.3 nM
B35	42 ± 5 nM
B36	35 ± 5 nM
